Reference: US20220064329A1 (Novo Nordisk, published 2022)

T1: recombinant human activated FVII (FVIIa) (human, UniProt P08709 61-212; P08709 213-466, ten glutamate residues of the Gla domain may be gamma-carboxylated)
T1 sequence 1: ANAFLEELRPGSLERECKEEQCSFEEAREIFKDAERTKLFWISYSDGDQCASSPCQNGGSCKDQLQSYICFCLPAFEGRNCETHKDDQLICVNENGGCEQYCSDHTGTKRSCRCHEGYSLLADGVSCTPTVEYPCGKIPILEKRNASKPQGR
T1 sequence 2: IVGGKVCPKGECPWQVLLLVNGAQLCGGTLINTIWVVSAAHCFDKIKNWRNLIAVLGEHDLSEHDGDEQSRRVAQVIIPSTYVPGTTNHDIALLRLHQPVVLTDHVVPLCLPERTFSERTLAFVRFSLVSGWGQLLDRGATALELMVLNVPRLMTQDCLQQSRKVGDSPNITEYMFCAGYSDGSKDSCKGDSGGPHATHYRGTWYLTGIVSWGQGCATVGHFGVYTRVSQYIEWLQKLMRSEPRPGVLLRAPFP

T2: sTLT1 (SEQ ID No: 3 with six histidine residues added at the C-terminus) (human, UniProt Q86YW5 16-162)
T2 construct: Soluble TLT-1 used in SPR
T2 sequence: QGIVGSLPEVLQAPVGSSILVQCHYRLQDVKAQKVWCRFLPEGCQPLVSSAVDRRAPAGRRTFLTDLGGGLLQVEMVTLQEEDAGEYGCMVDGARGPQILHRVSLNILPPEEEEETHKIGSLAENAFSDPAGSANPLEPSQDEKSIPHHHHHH

T3: recombinant human activated Factor VII (FVIIa) (human, UniProt P08709 61-212; P08709 213-466, ten glutamate residues of the Gla domain may be gamma-carboxylated)
T3 sequence 1: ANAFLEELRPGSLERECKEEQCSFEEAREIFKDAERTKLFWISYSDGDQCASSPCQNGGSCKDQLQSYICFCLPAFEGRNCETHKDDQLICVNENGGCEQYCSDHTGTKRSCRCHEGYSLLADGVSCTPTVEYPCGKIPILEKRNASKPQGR
T3 sequence 2: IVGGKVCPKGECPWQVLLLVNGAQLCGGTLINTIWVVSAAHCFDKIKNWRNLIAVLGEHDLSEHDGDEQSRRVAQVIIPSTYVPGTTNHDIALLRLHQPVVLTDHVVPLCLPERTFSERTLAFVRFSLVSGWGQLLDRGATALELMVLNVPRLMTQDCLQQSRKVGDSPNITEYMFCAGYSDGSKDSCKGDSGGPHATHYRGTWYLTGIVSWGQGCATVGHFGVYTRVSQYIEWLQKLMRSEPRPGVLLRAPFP


What was measured:
[1] = target: T1, recombinant human activated FVII (FVIIa); experiment: cell-based or functional assay
[2] = target: T1, recombinant human activated FVII (FVIIa); experiment: dissociation constant listed with the stimulatory activities; method not given
[3] = target: T2, sTLT1 (SEQ ID No: 3 with six histidine …); experiment: dissociation constant listed with the stimulatory activities; value of the anti-TLT-1 arm
[4] = target: T3, recombinant human activated Factor VII …; experiment: cell-based or functional assay
[5] = target: T3, recombinant human activated Factor VII …; experiment: SPR (Biacore)

Stimulation (fold): FXa generated by FVIIa with lipidated TLT-1 and 100 nM biAb, relative to free FVIIa [1]	Kd [2]	Kd [3]	AT inhibition (kinh %) [4]	TGT activity (%% FVIIa) [4]	Kd [5]	Binder
20.3 fold	0.28 nM	2.9 nM				biAb0011 (bispecific antibody, human IgG4 S228P, kappa, Duobody, constant domain type H (IgG4): anti-FVII(a) arm mAb0875, anti-TLT-1 arm mAb1076; also called mAb0875 x mAb1076) heavy 1: QVQLQESGPGLVEPSQTLSLTCTVSGYSITSDSAWSWIRQPPGKKLEWIGYIQYSGSTNYNPSLKSRVTISRDTSKNQFSLKLSSVTAADTAVYYCARSVNYYGNSFAVGYWGQGTLVTVSSASTKGPSVFPLAPCSRSTSESTAALGCLVKDYFPEPVTVSWNSGALTSGVHTFPAVLQSSGLYSLSSVVTVPSSSLGTKTYTCNVDHKPSNTKVDKRVESKYGPPCPPCPAPEFLGGPSVFLFPPKPKDTLMISRTPEVTCVVVDVSQEDPEVQFNWYVDGVEVHNAKTKPREEQFNSTYRVVSVLTVLHQDWLNGKEYKCKVSNKGLPSSIEKTISKAKGQPREPQVYTLPPSQEEMTKNQVSLTCLVKGFYPSDIAVEWESNGQPENNYKTTPPVLDSDGSFLLYSKLTVDKSRWQEGNVFSCSVMHEALHNHYTQKSLSLSLGK light 1: EIVLTQSPATLSLSPGERATLSCRASQGVSDYLHWYQQKPGQAPRLLIKYASQPATGIPARFSGSGSGTDFTLTISSLEPEDFAVYYCQNGHSFPLTFGQGTKLEIKRTVAAPSVFIFPPSDEQLKSGTASVVCLLNNFYPREAKVQWKVDNALQSGNSQESVTEQDSKDSTYSLSSTLTLSKADYEKHKVYACEVTHQGLSSPVTKSFNRGEC heavy 2: not shown light 2: DIVMTQTPLSSPVTLGQPASISCRSSQSLVHRQGNTYFHWLQQRPGQPPRLLIYKVSNRFSGVPDRFSGSGAGTDFTLKISRVEAEDVGVYYCSQSTHVPYTFGQGTKLEIKRTVAAPSVFIFPPSDEQLKSGTASVVCLLNNFYPREAKVQWKVDNALQSGNSQESVTEQDSKDSTYSLSSTLTLSKADYEKHKVYACEVTHQGLSSPVTKSFNRGEC
17.3 fold	0.28 nM	19 nM				biAb0016 (bispecific antibody, human IgG4 S228P, kappa, Duobody, constant domain type H (IgG4): anti-FVII(a) arm mAb0875, anti-TLT-1 arm mAb1038; also called mAb0875 x mAb1038) heavy 1: QVQLQESGPGLVEPSQTLSLTCTVSGYSITSDSAWSWIRQPPGKKLEWIGYIQYSGSTNYNPSLKSRVTISRDTSKNQFSLKLSSVTAADTAVYYCARSVNYYGNSFAVGYWGQGTLVTVSSASTKGPSVFPLAPCSRSTSESTAALGCLVKDYFPEPVTVSWNSGALTSGVHTFPAVLQSSGLYSLSSVVTVPSSSLGTKTYTCNVDHKPSNTKVDKRVESKYGPPCPPCPAPEFLGGPSVFLFPPKPKDTLMISRTPEVTCVVVDVSQEDPEVQFNWYVDGVEVHNAKTKPREEQFNSTYRVVSVLTVLHQDWLNGKEYKCKVSNKGLPSSIEKTISKAKGQPREPQVYTLPPSQEEMTKNQVSLTCLVKGFYPSDIAVEWESNGQPENNYKTTPPVLDSDGSFLLYSKLTVDKSRWQEGNVFSCSVMHEALHNHYTQKSLSLSLGK light 1: EIVLTQSPATLSLSPGERATLSCRASQGVSDYLHWYQQKPGQAPRLLIKYASQPATGIPARFSGSGSGTDFTLTISSLEPEDFAVYYCQNGHSFPLTFGQGTKLEIKRTVAAPSVFIFPPSDEQLKSGTASVVCLLNNFYPREAKVQWKVDNALQSGNSQESVTEQDSKDSTYSLSSTLTLSKADYEKHKVYACEVTHQGLSSPVTKSFNRGEC heavy 2: not shown light 2: DIVMTQTPLSSPVTLGQPASISCRSSQSLVHRPGNTYFHWLQQRPGQPPRLLIYKVSNRFSGVPDRFSGSGAGTDFTLKISRVEAEDVGVYYCSQSTHVPYTFGQGTKLEIKRTVAAPSVFIFPPSDEQLKSGTASVVCLLNNFYPREAKVQWKVDNALQSGNSQESVTEQDSKDSTYSLSSTLTLSKADYEKHKVYACEVTHQGLSSPVTKSFNRGEC
			129%	102%	0.106 nM	mAb0707(OA) (antibody, human IgG4 S228P, kappa, one-armed (OA) antibody, constant domain type F (knob-in-hole)) heavy: QVQLQESGPGLVEPSQTLSLTCTVSGYSISSDSAWSWIRQPPGKGLEWIGYIQYSGSTNYNPSLKSRVTISRDTSKNQFSLKLSSVTAADTAVYYCARSVNYYGNSFAVGPWGQGTLVTVSSASTKGPSVFPLAPCSRSTSESTAALGCLVKDYFPEPVTVSWNSGALTSGVHTFPAVLQSSGLYSLSSVVTVPSSSLGTKTYTCNVDHKPSNTKVDKRVESKYGPPCPPCPAPEFLGGPSVFLFPPKPKDTLMISRTPEVTCVVVDVSQEDPEVQFNWYVDGVEVHNAKTKPREEQFNSTYRVVSVLTVLHQDWLNGKEYKCKVSNKGLPSSIEKTISKAKGQPREPQVYTLPPSQEEMTKNQVSLSCAVKGFYPSDIAVEWESNGQPENNYKTTPPVLDSDGSFFLVSRLTVDKSRWQEGNVFSCSVMHEALHNHYTQKSLSLSLGK light: EIVLTQSPATLSLSPGERATLSCRASQGISDYLHWYQQKPGEAPRLLIKYTSQPATGIPARFSGSGSGTDFTLTISSLEPEDFAVYYCQNGHSFPLTFGQGTKLEIKRTVAAPSVFIFPPSDEQLKSGTASVVCLLNNFYPREAKVQWKVDNALQSGNSQESVTEQDSKDSTYSLSSTLTLSKADYEKHKVYACEVTHQGLSSPVTKSFNRGEC not shown
			136%	102%	0.128 nM	mAb0710(OA) (antibody, human IgG4 S228P, kappa, one-armed (OA) antibody, constant domain type F (knob-in-hole)) heavy: QVQLQESGPGLVKPSQTLSLTCTVSGYSISSDSAWSWIRQFPGKGLEWIGYIQYSGSTNYNPSLKSRVTISRDTSKNQFSLKLSSVTAADTAVYYCARSVNYYGNSFAVGPWGQGTLVTVSSASTKGPSVFPLAPCSRSTSESTAALGCLVKDYFPEPVTVSWNSGALTSGVHTFPAVLQSSGLYSLSSVVTVPSSSLGTKTYTCNVDHKPSNTKVDKRVESKYGPPCPPCPAPEFLGGPSVFLFPPKPKDTLMISRTPEVTCVVVDVSQEDPEVQFNWYVDGVEVHNAKTKPREEQFNSTYRVVSVLTVLHQDWLNGKEYKCKVSNKGLPSSIEKTISKAKGQPREPQVYTLPPSQEEMTKNQVSLSCAVKGFYPSDIAVEWESNGQPENNYKTTPPVLDSDGSFFLVSRLTVDKSRWQEGNVFSCSVMHEALHNHYTQKSLSLSLGK light: EIVLTQSPATLSLSPGERATLSCRASQGISDYLHWYQQKPGQAPRLLIKYTSQPATGIPARFSGSGSGTDFTLTISSLEPEDFAVYYCQNGHSFPLTFGQGTKLEIKRTVAAPSVFIFPPSDEQLKSGTASVVCLLNNFYPREAKVQWKVDNALQSGNSQESVTEQDSKDSTYSLSSTLTLSKADYEKHKVYACEVTHQGLSSPVTKSFNRGEC not shown
12.4 fold	0.28 nM	75 nM				biAb0096 (bispecific antibody, human IgG4 S228P, kappa, Duobody, constant domain type H (IgG4): anti-FVII(a) arm mAb0875, anti-TLT-1 arm mAb1047; also called mAb0875 x mAb1047) heavy 1: QVQLQESGPGLVEPSQTLSLTCTVSGYSITSDSAWSWIRQPPGKKLEWIGYIQYSGSTNYNPSLKSRVTISRDTSKNQFSLKLSSVTAADTAVYYCARSVNYYGNSFAVGYWGQGTLVTVSSASTKGPSVFPLAPCSRSTSESTAALGCLVKDYFPEPVTVSWNSGALTSGVHTFPAVLQSSGLYSLSSVVTVPSSSLGTKTYTCNVDHKPSNTKVDKRVESKYGPPCPPCPAPEFLGGPSVFLFPPKPKDTLMISRTPEVTCVVVDVSQEDPEVQFNWYVDGVEVHNAKTKPREEQFNSTYRVVSVLTVLHQDWLNGKEYKCKVSNKGLPSSIEKTISKAKGQPREPQVYTLPPSQEEMTKNQVSLTCLVKGFYPSDIAVEWESNGQPENNYKTTPPVLDSDGSFLLYSKLTVDKSRWQEGNVFSCSVMHEALHNHYTQKSLSLSLGK light 1: EIVLTQSPATLSLSPGERATLSCRASQGVSDYLHWYQQKPGQAPRLLIKYASQPATGIPARFSGSGSGTDFTLTISSLEPEDFAVYYCQNGHSFPLTFGQGTKLEIKRTVAAPSVFIFPPSDEQLKSGTASVVCLLNNFYPREAKVQWKVDNALQSGNSQESVTEQDSKDSTYSLSSTLTLSKADYEKHKVYACEVTHQGLSSPVTKSFNRGEC heavy 2: not shown light 2: DIVMTQTPLSSPVTLGQPASISCRSSQSLVHRNGNTYFHWLQQRPGQPPRLLIYKVSNRFSGVPDRFSGSGAGTDFTLKISRVEAEDVGVYYCSQSTHVPYTFGQGTKLEIKRTVAAPSVFIFPPSDEQLKSGTASVVCLLNNFYPREAKVQWKVDNALQSGNSQESVTEQDSKDSTYSLSSTLTLSKADYEKHKVYACEVTHQGLSSPVTKSFNRGEC
11.3 fold	0.28 nM	320 nM				biAb0091 (bispecific antibody, human IgG4 S228P, kappa, Duobody, constant domain type H (IgG4): anti-FVII(a) arm mAb0875, anti-TLT-1 arm mAb1049; also called mAb0875 x mAb1049) heavy 1: QVQLQESGPGLVEPSQTLSLTCTVSGYSITSDSAWSWIRQPPGKKLEWIGYIQYSGSTNYNPSLKSRVTISRDTSKNQFSLKLSSVTAADTAVYYCARSVNYYGNSFAVGYWGQGTLVTVSSASTKGPSVFPLAPCSRSTSESTAALGCLVKDYFPEPVTVSWNSGALTSGVHTFPAVLQSSGLYSLSSVVTVPSSSLGTKTYTCNVDHKPSNTKVDKRVESKYGPPCPPCPAPEFLGGPSVFLFPPKPKDTLMISRTPEVTCVVVDVSQEDPEVQFNWYVDGVEVHNAKTKPREEQFNSTYRVVSVLTVLHQDWLNGKEYKCKVSNKGLPSSIEKTISKAKGQPREPQVYTLPPSQEEMTKNQVSLTCLVKGFYPSDIAVEWESNGQPENNYKTTPPVLDSDGSFLLYSKLTVDKSRWQEGNVFSCSVMHEALHNHYTQKSLSLSLGK light 1: EIVLTQSPATLSLSPGERATLSCRASQGVSDYLHWYQQKPGQAPRLLIKYASQPATGIPARFSGSGSGTDFTLTISSLEPEDFAVYYCQNGHSFPLTFGQGTKLEIKRTVAAPSVFIFPPSDEQLKSGTASVVCLLNNFYPREAKVQWKVDNALQSGNSQESVTEQDSKDSTYSLSSTLTLSKADYEKHKVYACEVTHQGLSSPVTKSFNRGEC heavy 2: not shown light 2: DIVMTQTPLSSPVTLGQPASISCRSSQSLVHRNGNTYFHWLQQRPGQPPRLLIYKVSNRFSGVPDRFSGSGAGTDFTLKISRVEAEDVGVYYCSQSTHVPYTFGQGTKLEIKRTVAAPSVFIFPPSDEQLKSGTASVVCLLNNFYPREAKVQWKVDNALQSGNSQESVTEQDSKDSTYSLSSTLTLSKADYEKHKVYACEVTHQGLSSPVTKSFNRGEC
